These results are taken from patent CN114592010A.

This experiment deals with NK细胞自身的IL-15受体(IL15Rβγ) (UniProt P14784). In words: cell-based or functional assay.
UniProt P14784, sequence (P14784 27-551 limits assumed, chain 1 of 2): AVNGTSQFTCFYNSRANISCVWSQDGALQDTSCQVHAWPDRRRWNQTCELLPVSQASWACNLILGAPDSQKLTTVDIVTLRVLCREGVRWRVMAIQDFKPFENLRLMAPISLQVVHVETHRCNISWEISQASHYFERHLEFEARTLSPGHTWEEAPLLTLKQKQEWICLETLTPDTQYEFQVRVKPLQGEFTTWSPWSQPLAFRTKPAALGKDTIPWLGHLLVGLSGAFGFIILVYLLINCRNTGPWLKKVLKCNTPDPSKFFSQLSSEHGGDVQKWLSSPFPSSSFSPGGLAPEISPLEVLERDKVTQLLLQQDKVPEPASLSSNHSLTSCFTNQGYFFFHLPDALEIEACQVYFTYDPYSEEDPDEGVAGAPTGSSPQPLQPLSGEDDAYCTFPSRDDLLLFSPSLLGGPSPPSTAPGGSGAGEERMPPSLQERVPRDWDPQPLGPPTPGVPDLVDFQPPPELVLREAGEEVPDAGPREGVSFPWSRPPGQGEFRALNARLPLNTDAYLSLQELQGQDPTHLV
UniProt P14784, sequence (P31785 23-369 limits assumed, chain 2 of 2, further chain): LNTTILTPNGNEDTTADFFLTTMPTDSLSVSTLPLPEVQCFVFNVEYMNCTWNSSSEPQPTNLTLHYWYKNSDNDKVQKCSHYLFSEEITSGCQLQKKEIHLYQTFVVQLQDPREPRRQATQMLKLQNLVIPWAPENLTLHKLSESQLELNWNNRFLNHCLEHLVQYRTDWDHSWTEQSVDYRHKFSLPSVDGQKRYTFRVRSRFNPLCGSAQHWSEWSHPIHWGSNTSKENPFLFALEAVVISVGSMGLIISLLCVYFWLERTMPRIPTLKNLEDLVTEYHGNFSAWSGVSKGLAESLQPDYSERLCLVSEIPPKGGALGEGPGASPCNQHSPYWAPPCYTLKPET

Substance “膜结合型IL-15 (IL-15-CD8 hinge-CD8 TM融合蛋白) (ligand)” came in with a 增殖效果 (CCK8), NKMB cells = 实施例3 NK-CAR(NK-CAR)-MbIL-15, 1d (relative to 0d = 1) of 1.66; a 增殖效果 (CCK8), NKMB cells = 实施例3 NK-CAR(NK-CAR)-MbIL-15, 2d (relative to 0d = 1) of 2.37; a 增殖效果 (CCK8), NKMB cells = 实施例3 NK-CAR(NK-CAR)-MbIL-15, 3d (relative to 0d = 1) of 2.83; a 增殖效果 (CCK8), NKMB cells = 实施例3 NK-CAR(NK-CAR)-MbIL-15, 4d (relative to 0d = 1) of 4.12. The same substance yielded a 增殖效果 (CCK8), TMB cells = 实施例4 NK-CAR(T-CAR)-MbIL-15, 1d (relative to 0d = 1) of 1.67; a 增殖效果 (CCK8), TMB cells = 实施例4 NK-CAR(T-CAR)-MbIL-15, 2d (relative to 0d = 1) of 2.7; a 增殖效果 (CCK8), TMB cells = 实施例4 NK-CAR(T-CAR)-MbIL-15, 3d (relative to 0d = 1) of 3.63; a 增殖效果 (CCK8), TMB cells = 实施例4 NK-CAR(T-CAR)-MbIL-15, 4d (relative to 0d = 1) of 7.77.
